Assay results as given in the DeepSol protein solubility set.

Experiment: soluble on expression in E. coli; label from the status in PepcDB or PDB records

| Sequence | soluble on expression in E. coli |
| --- | --- |
| MRIQFEIKESLINILDQLMHSDFWATEIKEDESGKKIIKIKDLAYNLEAVAEVMGNEIFIRTALSKYTYRIYEVKGECWCEYVGAYRGFLEQKLLPIITPKENLLECEVLDSSILGGKQKTLREYAEDNLKLKKFREQNFGNNGFSKADHPRRVYDEFIKEDFIPEDKKGHSLNITKSAN | not soluble |
| MSKQAFQKIYTKITNITKATCSLRATGVGNEELATIDGRLAQVVRIQGEDVTLQVFAGTEGIPTDAEVIFMGKAPSLKVGDQLAGRFFNAYGEPIDGGPQPEGKEVEIGGPSVNPVRRKQPSELIATGIAGIDLNNTLVTGQKIPFFADPDQPFNQVMAMVALRAESDKIILGGMGMTNDDYLFFKNTFSNAGALDRIVSFINTTEDPSVERILVPDMALAAAEYFAVEKHEKVLVLLTDMTNYADALAIVSNRMDQIPSKDSMPGSLYSDLAKIYEKAVQFPDGGSITIIAVTTLSGGDITHAVPDNTGYITEGQLYLRRDSNVGKVIVDPFRSLSRLKQLVIGKKTREDHPQVMNAAVRLFSDAANAQTKMENGFDLTDYDNRALEFANDYSRQLLAIDVNVNTTEMLDTAWELFSKHFKPAEVNIKQQLVDTYWKK | not soluble |
| SLETKVAARDLSSLLSHCEAPVAALTVTAFKCKASACSVAPAPGSNTGLGALMSMAQAAQGLQTFPNIGDGLSNALTTALKTTGCFKVMAREDFEDLRREAEAAGITLKSASADYLVTGAITSLAVGAKTQSFGGGFVPLVGAVSRSTKSANISIDVRLVDVKASEVKASQTFDVSNERSSWGAGGAGWGGSGALFGAASSTQSPELDSVANESVIQAANYIVTQVAGSAAIPPVAAITK | soluble |
| MSLKTIAINQYGSADEFTMVDMPTTEPQADEVQVAIHAFSLNPMDIAGRMGALSSPFTDLWAFPLVLGWDFAGVITKMGKAVTGFNIGDAVFGSAAPAHAANNGTYGEFITVNTKELAHLPAGLSFDQAAALPIAGLTAYYGMKHNLKLQSGQKILVQGGAGGVGLFAIQIAKAFGAYVATTASANHRDLLTRLGADEVIDYHETDPAAVLHDYDAVFDTVGDIDTGLKVLKADGQLATIAGQPTDEQQHDQQKKVAFQFTQGSSQDLADLAQLVVSGQVKLTVATLPFSVANVIKGHRSIESRHTTGKIVIHVTEGHHHHHH | not soluble |
| MAHHHHHHMKARSSRPVTTITVTSEETIQTHNARDTPRTFEYKTKRNELMRRLEEMRNALEEDNNNNNKGSRVKLCYYDITFNCRDPVDVTVMSGFQRFEGLGDTLSGHMKCEEDDRHKFVGLIKEIIQLDVSHRARNMDKSEIAVVRIAANFKELNSTFTRSAATLL | not soluble |
| MFGKTLLRRIACSNLNLKSRKLSGKPRLAIVGSGPAGMFACNGLLRKSNFSVDVFENSPVPFGLVRYGVAPDHQEVKNVINTFDAMFEKNRERLKLFCNVNIGRDITFDELTRGYDAVLLAYGSYKTRTLDIPGSDASNVISGSEFVGWYNGVPNASTPDLTTSNVVIVGNGNVALDCARVLSTASSGLLRISDIPGDRLNVLEGANVKDIKILGRRGPEHVSFTIKELREQFKIKDWDSKLEISEIDAKNLTESLPKLERKKKRLTEVLVKNIGIANGLRQCHFIFHRIPEKIIADSNGKVQEIIVKNNETGQEETYPCGLLIYSIGYQTLVLDGVPQNDKKMIDMKDHCRVNMVAACSSQVYATGWCAHGPHGIIVDTQQQSIFVADQIAADFAQFKDSTSNGVEELLEDRKVPFISWDEWKQIDRQEQDTGKLSGKIREKFTTFEKFLTKLKKCN | not soluble |
| VGVGYFDTIEIKTILSLLQIIDNPMQDIPLISVLKSPIFGFTPEDLIDIRVQSKDKIFYEVLKSTAEYDGFTDSQNENESEFIPSEECINKSKDFLIKLKEFKEKSMYMSTDEFIWYLYTRTGYYAYVGALPGGSQRQANLKVLFERAKQFEETSLKGIFNFVNFIEKLKKSSSDMGSAKT | soluble |
| MIPKAFDGVKLLQFSDLHLGHYDSLERFYRIINQINKLQPDIVVFTGDLLHEANRYPHTEEVADALASIRAPLGKFSVYGNHDHGGYGTDIYRRLMERAGFRVLVNEHALVRRGQERIAVAGGDDMMLGQPDWAKMTSGIPASTYTIALVHEPDGALETCRYPIHVQLSGHSHGGQIQLPFIGPLITPPLSERYYEGFYHVGGLVLYVNRGLGTTRVPLRFFAPPELTVFSLIHRLEHHHHHH | not soluble |
| VTSPNSTAPTPSLITAPPPSTTEDLRLALRAATLYYLDGMTQAEVATRLGVSRPTAGRLVARARAQGLVRIEVQAPAHLRDALRSDEERALEEKYGLVEAVVVADSVDAAGAIDDHNSFAGVGRAAASLLVRRIREGDTLGFTWGPETVAVAQGLPSGAATCASVVQLDGSVSAINYQTGTEYVLGRCAEQLQANTVRLPVPLYADASTVVSMRGDSVISKALEAGRTAEMMMFGTGAVSTSTTLFEGSFIDTDMLSVLTGLGAVGEVGGRFYRLDGTEVAGPLDERAMSVPLDDIRACEGSILVTGGVAKHQAALGALHGGLAKMLVCDIECARWLLDQ | not soluble |
| MIDQHQYIERESGSVCNERLFGDRLIRLLYHGARENAPFLFKMATSSWSSGLLGFINFDLPFGSNRRFLEECGVDLDECLDPPESLDTPRKVFERRIRYEQCRPMPEVQWAVVSPADARVLVGSFRDTSALFLKEKFFDFEELLGRHKEEWLRAFTGGEFAVFRLTPDKYHYNHTPVAGTVRDIYEIDGGYHSCNPGAVVIEATPFSKNRRVVTVIDTDVPGGTGVGLVAMIEVVALMIGQIVQCYSYEGYTAPRPVEPGMFLRRGVPKSLYRPGSSTDVLIFQRDRMHFADDIVRNMHDTRAASRFSHGFGRPLVETDVKVRSLIAVAVTNLEHHHHHH | not soluble |
| MGSDKIHHHHHHMNIAMFSDTYAPQINGVATSIRVYKKKLTERGHKVVVVAPSAPEEEKDVFVVRSIPFPFEPQHRISIASTKNILEFMRENNVQIIHSHSPFFIGFKALRVQEEMGLPHVHTYHTLLPEYRHYIPKPFTPPKRLVEHFSAWFCNMTNVVIAPTEDIKRELESYGVKRPIEVLPTGIEVEKFEVEAPEELKRKWNPEGKKVVLYAGRIAKEKNLDFLLRVFESLNAPGIAFIMVGDGPEREEVEEFAKEKGLDLKITGFVPHDEIPLYYKLGDVFVFASKTETQGLVLLEALASGLPVVALKWKGVKDVLKNCEAAVLIEEENERLFAEKIKHILKNDRLREELSTKGREFVRKEWSVDRFVQRLEEIYTRAIEEGPVEINTSLMIKEFVKFEKLKEFFSKIEDRIWR | not soluble |
| MIDKIVFEEDEEYDLTQDSFRYGRVTTGASYNLVTGKIPETVLEQVKAKDDENDDVEFEMDHLEDKEAVQKTKTFDELYESQMPKYFEYQSNFSEVNGIWTLLFDQNHYENMSTFELQAAICAALNSKHYMMICVGIDAFNAVTGVEMSAKDRVVFRMALTRAVAGEFQPPLVKVAPKQLTGVSPMKRDISEVTSSIDVLFIPVIGVTDEVENNRFLIVVRVKEISDKVYQISSGRIYNELEGRVVEMSDMNEAFHKLIVEQSISDIQTRRGSMFMLEPEPFLEDSPVIFTGSKEILRENHEIPNILKENSTERSLSQSLLNLLDIQNIGWIFFGTALSCCIYNNAIKPLVK | not soluble |
| MGSDKIHHHHHHMGKTTRKVQITGGSTFIVSLPPEWVKRNGITKGSEISISDDGNDLVISSSNPDLPEVSKKIIIPPNYTGKPLQRLLTSSYISGFDTLSIVSKEKMGSELRDDIKRFSKVVMGIEIIEETSKSVVLQNVLNVKTFPLSKAIRRMSLNVGTMIEDTIKAIEDYDEELFQNVIERDDEVDRYQWYIYREVKNHCQYEDSNVFMLVLSRILERMADHTVNICIAMKDRKAVNGRMEMIDNLKFSLDVYNHAVESFYSKNFKVLDGIINQKSEINERKFKLLKILSYDVVLSSIAEEISRIGLYGTDIAELAMDLILSDKLEFSVQ | not soluble |
| GPGSMSSSGPLAPPISWAQRPEYVLITIPLQDTTGVSVEIKDEGRELHFACSSPEHKQYACTIHFYGVISSEESQHVVRPRQIELKLRKKFSKSLEDANDDEVEWPRLTKEKSKYPNITIDWSKWKDENDDECAADDLGNFGLSGGDAMDGQYSEMLSQLMQAQGQKDAEESADLPPGTIPGFGSARGQEATHGASAETGDDDGDMPPLEEDT | soluble |
| SQLNPTVMISGSSANNHRFDNLVAILNRQSTTHSLLRVQVNEDNSISYSGRIRPNDSQPYIVIGFQNNSDGYANIKRQAKWLEIAMKFLQKRYHFNHFNAFGHSNGGLDWTIYLEKYFNQKSSTIGTLMTVGSPFNFSEKSESNRTQMLTDLIKNRSKLPRDMTVYSIAGTETYNDDGIVPIESVLSGKYVFQKNVHSYTQITVSGNDSEHSDLPTNPQIVQLIQRDILDGRGQKQSSNPVFNNH | not soluble |
| GPVPTPPDNIQVQENFNISRIYGKWYNLAIGSTCPWLKKIMDRMTVSTLVLGEGATEAEISMTSTRWRKGVCEETSGAYEKTDTDGKFLYHKSKWNITMESYVVHTNYDEYAIFLTKKFSRHHGPTITAKLYGRAPQLRETLLQDFRVVAQGVGIPEDSIFTMADRGECVPGEQEPEPILIPRV | soluble |
| MGSDKIHHHHHHMLEPQDQKKLDELFSSMQEANGCFLGYPFAKDFDYEPLWRFMSLTGNNLGDPFEPGTYRVNSHAFECDVVDFFARLFRACSCEVWGYVTNGGTEGNIYGLYLARELYPNAVAYFSQDTHYSVSKGVRLLRLEHSVVRSQSNGEINYDDLAQKATRYRTRPAVVVANIGTTMKEGKDDTLKIRAVLHDVGISAIYVHSDAALCGPYAPLLNPKPAFDFADGADSITLSGHKFLGAPMPCGVVLSHKLHVQRVMRNIDYIGSSDTTLSGSRNAFTPIILWYAIRSLGIEGIKQTFQQCERLAAYTADELNVRGVSAWRNPNALTVVLPPVEDSIKTKWQIATQDVSHLVVTPGTTKQQADALIETISNRNR | not soluble |
| MSLSFSMKIKNIPYYVATRVVKRIQSWLGLNTLGARAIVTNAEGHVLLVKHTYQPHWYLPGGGVKKGESTKAAVIRELHEEVGLVVAEQDVILFGIYHHKYLGVNDYPVIYIVKNFTSHVTHSGEIEQIGWFSLDALPEMVSPGTKRRLGEYFDNNPISEKWEGHHHHHH | soluble |
| PLQEERLQRLQDRMVVPFDETRPDHQESLKALWNVAFPNVHLTGLVTEQWKEMGWQGPNPSTDFRGCGFIALENLLFSARTYPVNYSLLLKQRGDRAKWEYPFAVAGINISFMLIQMLDLQNNQDERAFDVLYCIAFAMMDAQWLAMHASYMEFNEVLQATRNQLERELSLDDIHRIQDLPAYNLLFQ | not soluble |
| MGSDKIHHHHHHMIVMDAETLKELIRDDFEVINANETVSKLFPMLEKLDRDKANAILVEEDGKIVGVVREKDLIRGSVLKNPHETKVKSLLVRTGKIDLNELDPYKVARRFVEDSTPFVIVQIDDKRVGVIYINDFLSALKDEFKDVKVREVMNPEVITVRRFDSAAKALSVMRTHGIDRVVVVDENNKVIGILTGKDVVDRVISPRKRARMGDSSGEKEKTLSIMVESIMSSPVVSVSRNDSVAEVIDLMVENRISSVVVTRDGLPDGIVIKKDILEYYLKKESRKEFNVQISTADITLDEFDREAILEDVEKLMRKFSDFLGESFLFIYIKRHKEHFRNLPLIHVRLKLASEKGNFMVSGESWGVEYAVHVALKKLEREILKEKELLEDKRMIKRFYEEVLEY | not soluble |
| MDFHIRKATNSDAEAIQHVATTSWHHTYQDLIPSDVQDDFLKRFYNVETLHNRISATPFAVLEQADKVIGFANFIELEKGKSELAAFYLLPEVTQRGLGTELLEVGMTLFHVPLPMFVNVEKGNETAIHFYKAKGFVQVEEFTEDFYGYPLETIRFNLNHHAFEEE | not soluble |
| MRDAALRYPNILFDLDGTLTDPREGITRSVQFALARLGIDEPDLARLEHFIGPPLLQCFMQTYGFDEARAWEAVNHYRERFRVTGLYENRVFDGIPELLEALVGRGHTLYVATSKPGVFAREIARHFAFDRHFKAIYGSELDGTRTHKEELIRHLLDSEGLAAEHCLMIGDRMHDLLGASRNGVACIGVGYGFGSEDELRAHQPTHYCADLAALRQVLESH | not soluble |
